From paper PMC2873280, “Generation of anti-TLR2 intrabody mediating inhibition of macrophage surface TLR2 expression and TLR2-driven cell activation” (BMC Biotechnology, 2010) come the findings set out here.

The target of the experiment is T1, N-terminally Flag-tagged human TLR2 (Homo sapiens, UniProt O60603).
T1 construct: Toll-like receptor 2, human; also called hTLR2; Toll-like receptor 2; source: HEK293, transiently transfected, in lysate; not shown: Flag, N-terminal, kept
The experiment can be described thus: co-IP; HEK293 cells co-transfected with Flag-tagged human TLR2 and myc-tagged intrabody; lysed after 48 h (0.5% NP40, 150 mM NaCl); IP with myc-specific antibody and protein G beads, 4°C, 16 h, 5 washes; blot with tag-specific antibodies. To be noted: partners not purified.

T1 sequence (O60603 21-784): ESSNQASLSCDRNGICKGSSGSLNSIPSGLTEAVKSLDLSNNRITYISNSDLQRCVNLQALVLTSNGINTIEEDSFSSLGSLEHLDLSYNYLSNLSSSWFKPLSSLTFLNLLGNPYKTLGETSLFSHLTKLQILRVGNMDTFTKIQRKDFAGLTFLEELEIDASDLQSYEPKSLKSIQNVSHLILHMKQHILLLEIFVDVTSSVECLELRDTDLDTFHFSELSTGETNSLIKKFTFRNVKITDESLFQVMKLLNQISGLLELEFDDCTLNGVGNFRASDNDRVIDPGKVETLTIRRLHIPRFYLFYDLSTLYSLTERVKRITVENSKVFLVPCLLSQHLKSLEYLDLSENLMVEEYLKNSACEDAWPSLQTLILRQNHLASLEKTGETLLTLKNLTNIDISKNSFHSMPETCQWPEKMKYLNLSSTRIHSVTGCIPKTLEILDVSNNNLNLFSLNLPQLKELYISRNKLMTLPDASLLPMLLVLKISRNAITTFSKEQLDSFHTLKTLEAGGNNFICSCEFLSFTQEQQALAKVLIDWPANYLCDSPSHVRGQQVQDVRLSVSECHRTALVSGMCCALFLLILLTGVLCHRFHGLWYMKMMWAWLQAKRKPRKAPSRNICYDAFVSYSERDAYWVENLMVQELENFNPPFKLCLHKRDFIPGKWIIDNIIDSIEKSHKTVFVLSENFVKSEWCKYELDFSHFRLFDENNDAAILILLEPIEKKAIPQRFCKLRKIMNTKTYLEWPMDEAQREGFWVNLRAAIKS

B1: anti-TLR2 scFv ER intrabody (αT2ib) (scFv, V domains shown)
VH: QVQLQQSGPELVNPGASVKLSCKASGFTFTTYGINWVKQGPGQGLEWIGWIYPRDGSTNFNENFKDKAALTVDTSSSTAYMELHSLTSEDSAVYFCARLTGGTFLDYWGQGTTVTVSS
VL: DIELTQSPASLAVSLGQRATISCRASESVEYYGTSLMQWYQQKPGQPPKLLIFGASNVESGVPVRFSGSGSGTDFSLNIHPVEEDDIVMYFCQQSRKLPWTFGGGTKLEIK
notes: VH of mouse mAb T2.5 (anti human/murine TLR2), amplified from hybridoma cDNA with consensus primers; synthetic 15 amino acid linker, printed as (Gly4Ser)3, between VH and VL; VL (kappa) of mouse mAb T2.5, amplified from hybridoma cDNA with consensus primers; Apparent size about 30 kDa; also called anti-TLR2 ER intrabody; TLR2 specific intrabody; source: HEK293, transiently transfected …
Regarding B1, the binding result was “binds”.
